Values of other authors as cited in paper PMC4379523.

Target: ribosomal protein L3 N-terminal peptide (L3Δ21) 1-21 (Saccharomyces cerevisiae) (UniProt P14126)
Test: SPR

Sequence of UniProt P14126 (P14126 1-21, stated change not applied): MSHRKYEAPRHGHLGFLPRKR

For “Pokeweed antiviral protein (PAP) (from UniProt P10297)”, which Kd is on record?
The Kd was 24.8 nM.
